Measurements from the supplement of paper PMC7125110.
± gives the standard error. For some of these results: Fewer inactive variants are shown than the library holds.

B1: glmS ribozyme (parent)
chain: AUAAAAGCGCCAGAACUACAGAAAUGUAGUUGACGAGGAGGAGGUUUAUCGAAUUUUCGGCGGAUGCCUCCAAA

Key:
Settings in all cases: with glucosamine-6-phosphate
[1] = variants of: B1; assay: kcat; higher = faster cleavage; RNA array
In short: (§1)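 Weighted Michaelis–Menten fits across concentrations supplied kcat and KM, based on kobs from one- or two-exponential decay fits to normalised per-tile medians. The data came from barcoded ribozyme variants transcribed in situ by E. coli RNA polymerase on sequenced MiSeq chips and tracked at 37 °C by a hybridised Cy3 probe. Glucosamine-6-phosphate (40 μM to 10 mM) in HEPES/KCl/Mg(OAc)2 buffer was flowed in.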

[2] = variants of: B1; assay: self-cleavage kobs at 40 uM GlcN6P; higher = faster cleavage; RNA array
In short: as §1

[3] = variants of: B1; assay: self-cleavage kobs at 160 uM GlcN6P; higher = faster cleavage; RNA array
In short: as §1

[4] = variants of: B1; assay: KM; higher = weaker cofactor use; RNA array
In short: as §1

[5] = variants of: B1; assay: self-cleavage kobs at 640 uM GlcN6P; higher = faster cleavage; RNA array
In short: as §1

[6] = variants of: B1; assay: self-cleavage kobs at 2500 uM GlcN6P; higher = faster cleavage; RNA array
In short: as §1

[7] = variants of: B1; assay: self-cleavage kobs at 10000 uM GlcN6P; higher = faster cleavage; RNA array
In short: as §1

Variant	kcat [1] [s⁻¹]	self-cleavage kobs at 40 uM GlcN6P [2] [s⁻¹]	self-cleavage kobs at 160 uM GlcN6P [3] [s⁻¹]	KM [4] [µM]	self-cleavage kobs at 640 uM GlcN6P [5] [s⁻¹]	self-cleavage kobs at 2500 uM GlcN6P [6] [s⁻¹]	self-cleavage kobs at 10000 uM GlcN6P [7] [s⁻¹]
A36G A53U	1.3e-05 ± 2.6e-06	< 1e-05	< 1e-05	–	–	–	–
G63A C71G	2.96e-05 ± 9.4e-06	< 1e-05	–	–	–	–	–
G29C C50U	< 1e-05	–	< 1e-05	–	–	–	–
A12U U69G C70G	2.63e-05 ± 1.3e-05	–	< 1e-05	–	–	–	–
C8U C34U G35U C70A	< 1e-05	< 1e-05	–	–	–	–	–
C11U A33U	7.95e-05 ± 1.1e-06	–	–	1500 ± 99	2.29e-05 ± 1.1e-05	5.06e-05 ± 9.1e-06	6.9e-05 ± 5.3e-06
A42U U47G	3.95e-05 ± 1.3e-06	< 1e-05	–	6570 ± 510	–	–	2.38e-05 ± 9e-06
A15C G29C	0.00165 ± 0.00021	3.67e-05 ± 1e-05	8.7e-05 ± 1.5e-05	2620 ± 510	0.000333 ± 4.2e-05	0.000772 ± 9.9e-05	0.00135 ± 0.00018
A39C A53C	0.00121 ± 6.7e-05	2.09e-05 ± 8.9e-06	7.25e-05 ± 1.1e-05	2680 ± 240	0.000221 ± 2.6e-05	0.000595 ± 6.8e-05	0.000957 ± 0.0001
G35A C50G U69A	0.000277 ± 5.3e-05	0.000149 ± 3.4e-05	0.000465 ± 0.00015	–	0.000501 ± 0.00021	0.000206 ± 7.8e-05	0.000278 ± 5.3e-05
A12U C61U	2.71e-05 ± 7.4e-06	–	–	–	–	3.1e-05 ± 1.2e-05	–
A64U C70U	0.00015 ± 1.9e-05	–	–	1510 ± 510	5.13e-05 ± 5.8e-06	7.86e-05 ± 8.2e-06	0.000139 ± 9.8e-06
U31C U54C	0.00689 ± 0.0027	0.000101 ± 1.8e-05	0.000254 ± 4.6e-05	–	0.00134 ± 0.00024	0.00166 ± 0.00057	0.00579 ± 0.00087
G32U G51A	< 1e-05	< 1e-05	–	–	–	–	–
U30G C67U	0.00191 ± 0.00047	9.9e-05 ± 2.5e-05	0.000289 ± 5.9e-05	924 ± 380	0.000697 ± 0.00011	0.00139 ± 0.00022	0.00378 ± 0.0013
A52G C68A C70U	1.69e-05 ± 3.4e-06	–	–	–	–	–	–
A52G U54C	0.00197 ± 7e-05	2.55e-05 ± 1.1e-05	0.000111 ± 1.8e-05	2700 ± 150	0.000379 ± 5.7e-05	0.000985 ± 0.00015	0.00153 ± 0.00019
A42U	0.00024 ± 2.1e-05	< 1e-05	2.06e-05 ± 1.8e-06	1350 ± 270	7.53e-05 ± 1.4e-06	0.000187 ± 3.7e-06	0.000203 ± 2.9e-06

Variant	kcat [1] [s⁻¹]	self-cleavage kobs at 40 uM GlcN6P [2] [s⁻¹]	self-cleavage kobs at 160 uM GlcN6P [3] [s⁻¹]	KM [4] [µM]	self-cleavage kobs at 640 uM GlcN6P [5] [s⁻¹]	self-cleavage kobs at 2500 uM GlcN6P [6] [s⁻¹]	self-cleavage kobs at 10000 uM GlcN6P [7] [s⁻¹]
C10A C50A	2e-05 ± 5.5e-06	–	–	–	–	–	–
U55C C67U	0.000234 ± 1.4e-05	–	–	499 ± 120	0.000134 ± 2.5e-05	0.000173 ± 4.2e-05	0.000231 ± 3e-05
C34G C71G	2.07e-05 ± 5.7e-06	–	–	–	–	–	–
C58A C61A	1.11e-05 ± 1.1e-06	–	–	–	–	–	< 1e-05
A53G C58G	0.000112 ± 2.4e-06	–	–	1580 ± 120	3.28e-05 ± 1.1e-05	6.79e-05 ± 1.2e-05	9.67e-05 ± 9.9e-06
U46A C68U	0.00114 ± 0.00016	3.61e-05 ± 1.2e-05	6.77e-05 ± 1.1e-05	2350 ± 540	0.000233 ± 3.5e-05	0.000743 ± 0.00014	0.0009 ± 8.7e-05
G37C G51A	< 1e-05	–	< 1e-05	–	–	–	–
G41A G66A	0.0028 ± 0.0014	6.67e-05 ± 1.2e-05	0.000116 ± 3.7e-05	–	0.000562 ± 8.6e-05	0.000832 ± 0.00018	0.0028 ± 0.00037
A12C A33C	0.000196 ± 1.6e-05	–	–	2860 ± 540	3.98e-05 ± 9.4e-06	8.11e-05 ± 1.8e-05	0.000156 ± 1.8e-05
A36G	2.12e-05 ± 2.6e-06	–	–	–	–	1.72e-05 ± 3e-06	1.89e-05 ± 1.4e-06
C16A C50U	< 1e-05	< 1e-05	–	–	–	–	–
A33G C50G	0.000122 ± 3.3e-05	–	7.8e-05 ± 1.6e-05	–	0.000161 ± 2.3e-05	0.000102 ± 1.6e-05	–
G29C G40U	0.000193 ± 6.2e-06	–	–	1880 ± 150	5.1e-05 ± 8.7e-06	0.000106 ± 1.3e-05	0.000165 ± 1.5e-05
A15U C58A	0.000154 ± 5.6e-06	–	–	3640 ± 360	–	6.38e-05 ± 1.2e-05	0.000113 ± 1e-05
A15U C58U	8.55e-05 ± 9.3e-06	–	–	3320 ± 980	–	3.46e-05 ± 8.3e-06	6.48e-05 ± 8.4e-06
G38U U57A	1.47e-05 ± 4.2e-06	–	–	–	< 1e-05	–	–
A39G G41A	0.00311 ± 0.00078	4.23e-05 ± 8.3e-06	8.83e-05 ± 2.3e-05	3870 ± 1400	0.000475 ± 9.1e-05	0.00153 ± 0.00033	0.00217 ± 0.0003
C10A A48U	< 1e-05	–	–	–	< 1e-05	–	< 1e-05
